For one substance, Kd results are on record in paper PMC4360532.

This data set has as its system Rev full-length wild-type (HIV-1 (HXB3?)). Description: EMSA. To be noted: 10 mM HEPES pH 7.5, 0.1 M KCl (0.3 M KCl and no tRNA for SYBR Green II assay), 1 mM MgCl2, 0.5 mM EDTA, 2 mM DTT, 10% glycerol, 50 ug/ml yeast tRNA, 0.2 mg/ml ….

As to RRE full-length 234 nt, the Kd amounted to 145 pM.
